# ± gives the standard deviation of the averaged measurements.
# Experiment: total protein half-life in vivo (active degradation + dilution); higher = more stable protein
# [1] = E. coli NCM3722 delta-clpP delta-lon delta-hslV, growth: N-lim chemostat, doubling time 6 h
# [2] = E. coli NCM3722 delta-clpP, growth: N-lim chemostat, doubling time 6 h
# [3] = E. coli NCM3722 delta-hslV, growth: N-lim chemostat, doubling time 6 h
# [4] = E. coli NCM3722 delta-lon, growth: N-lim chemostat, doubling time 6 h
# [5] = E. coli NCM3722 delta-smpB, growth: N-lim chemostat, doubling time 6 h
# [6] = wild type E. coli NCM3722, growth: C-lim chemostat, doubling time 3 h
# [7] = wild type E. coli NCM3722, growth: C-lim chemostat, doubling time 6 h
# [8] = wild type E. coli NCM3722, growth: C-lim chemostat, doubling time 12 h
# [9] = wild type E. coli NCM3722, growth: N-lim chemostat, doubling time 6 h
# [10] = wild type E. coli NCM3722, growth: N-lim chemostat, doubling time 12 h
# [11] = wild type E. coli NCM3722, growth: P-lim chemostat, doubling time 6 h
# [12] = wild type E. coli NCM3722, growth: P-lim chemostat, doubling time 12 h
Sequence,total protein half-life in vivo [1] [h],total protein half-life in vivo [2] [h],total protein half-life in vivo [3] [h],total protein half-life in vivo [4] [h],total protein half-life in vivo [5] [h],total protein half-life in vivo [6] [h],total protein half-life in vivo [7] [h],total protein half-life in vivo [8] [h],total protein half-life in vivo [9] [h],total protein half-life in vivo [10] [h],total protein half-life in vivo [11] [h],total protein half-life in vivo [12] [h]
MRSFSQLWPTLKRLLAYGSPWRKPLGIAVLMMWVAAAAEVSGPLLISYFIDNMVAKNNLPLKVVAGLAAAYVGLQLFAAGLHYAQSLLFNRAAVGVVQQLRTDVMDAALRQPLSEFDTQPVGQVISRVTNDTEVIRDLYVTVVATVLRSAALVGAMLVAMFSLDWRMALVAIMIFPVVLVVMVIYQRYSTPIVRRVRAYLADINDGFNEIINGMSVIQQFRQQARFGERMGEASRSHYMARMQTLRLDGFLLRPLLSLFSSLILCGLLMLFGFSASGTIEVGVLYAFISYLGRLNEPLIELTTQQAMLQQAVVAGERVFELMDGPRQQYGNDDRPLQSGTIEVDNVSFAYRDDNLVLKNINLSVPSRNFVALVGHTGSGKSTLASLLMGYYPLTEGEIRLDGRPLSSLSHSALRQGVAMVQQDPVVLADTFLANVTLGRDISEERVWQALETVQLAELARSMSDGIYTPLGEQGNNLSVGQKQLLALARVLVETPQILILDEATASIDSGTEQAIQHALAAVREHTTLVVIAHRLSTIVDADTILVLHRGQAVEQGTHQQLLAAQGRYWQMYQLQLAGEELAASVREEESLSA [P0AAG5],6.44 ± 0.43,6 ± 0.12,4.33 ± 0.16,3.97 ± 0.13,4.31 ± 0.43,2.85,4.47 ± 0.42,8.8 ± 2.3,4.589 ± 0.038,6.71 ± 0.085,5.09 ± 0.38,10.3 ± 0.7
MRNPTLLQCFHWYYPEGGKLWPELAERADGFNDIGINMVWLPPAYKGASGGYSVGYDSYDLFDLGEFDQKGSIPTKYGDKAQLLAAIDALKRNDIAVLLDVVVNHKMGADEKEAIRVQRVNADDRTQIDEEIIECEGWTRYTFPARAGQYSQFIWDFKCFSGIDHIENPDEDGIFKIVNDYTGEGWNDQVDDELGNFDYLMGENIDFRNHAVTEEIKYWARWVMEQTQCDGFRLDAVKHIPAWFYKEWIEHVQEVAPKPLFIVAEYWSHEVDKLQTYIDQVEGKTMLFDAPLQMKFHEASRMGRDYDMTQIFTGTLVEADPFHAVTLVANHDTQPLQALEAPVEPWFKPLAYALILLRENGVPSVFYPDLYGAHYEDVGGDGQTYPIDMPIIEQLDELILARQRFAHGVQTLFFDHPNCIAFSRSGTDEFPGCVVVMSNGDDGEKTIHLGENYGNKTWRDFLGNRQERVVTDENGEATFFCNGGSVSVWVIEEVI,5.23 ± 0.094,4.16 ± 0.08,4.036 ± 0.019,4.4 ± 0.36,4.26 ± 0.12,3.21 ± 0.87,6.29 ± 0.87,12.4 ± 0.27,4.2 ± 0.082,6.75 ± 0.24,5.54 ± 0.59,13.4 ± 0.48
MQSLHGNCLIAYARHKYILTMVNGEYRYFNGGDLVFADASQIRVDKCVENFVFVSRDTLSLFLPMLKEEALNLHAHKKVSSLLVHHCSRDIPVFQEVAQLSQNKNLRYAEMLRKRALIFALLSVFLEDEHFIPLLLNVLQPNMRTRVCTVINNNIAHEWTLARIASELLMSPSLLKKKLREEETSYSQLLTECRMQRALQLIVIHGFSIKRVAVSCGYHSVSYFIYVFRNYYGMTPTEYQERSAQRLSNRDSAASIVAQGNFYGTDRSAEGIRL,6.49 ± 1,1.14,,,,,,,,,,
MSTTHNVPQGDLVLRTLAMPADTNANGDIFGGWLMSQMDIGGAILAKEIAHGRVVTVRVEGMTFLRPVAVGDVVCCYARCVQKGTTSVSINIEVWVKKVASEPIGQRYKATEALFKYVAVDPEGKPRALPVE [P0A8Z0],5.03 ± 0.4,5.16 ± 0.9,5.24 ± 0.38,5.86 ± 0.43,5 ± 0.31,2.93 ± 0.13,5.72 ± 0.64,11.1 ± 0.23,5.6 ± 0.096,10.1 ± 0.37,5.8 ± 0.5,13.3 ± 0.14
MFDYILSLGGTVFVPIIMIVIGLIFRIPWLQAIKAGVTVGIGFVGMGLVIVMAIDSLSPPIKVMIERFGLALHVFDVGAGPASGVGYATAIGAMIIPVIFLLNVAMLVTRLTKTMNVDIYNYWHYAITGTVVQLMTGSLIYGVLGAICHAALSLKMADWTAKRVQNIVGLEGISIPQGYGSSSVPLFVLLDAIYEKIPFMKGRNIDAQEIQKRYGMVGDPVIIGVVLGLIFGLAAGEGFKGCASLMITVAAIMVLFPRMIRLIVEGLLPISDGARKFFQKYFKGREVYIGLDTAVTLGHPTTIAVGLLLIPIMLILASILPGNKVLPLADLPVAPFFICMATVIHRGDLVRTLISGVIVMITVLLIATQFAPYFTEMALKGGFSFAGESAQISALSVGNMFGWSISELMSLGIIGVVVAVGIVASVVLFLRKRELSE,,,,,7.4,,6 ± 0.68,,,,,
MEALLQLKGIDKAFPGVKALSGAALNVYPGRVMALVGENGAGKSTMMKVLTGIYTRDAGTLLWLGKETTFTGPKSSQEAGIGIIHQELNLIPQLTIAENIFLGREFVNRFGKIDWKTMYAEADKLLAKLNLRFKSDKLVGDLSIGDQQMVEIAKVLSFESKVIIMDEPTDALTDTETESLFRVIRELKSQGRGIVYISHRMKEIFEICDDVTVFRDGQFIAEREVASLTEDSLIEMMVGRKLEDQYPHLDKAPGDIRLKVDNLCGPGVNDVSFTLRKGEILGVSGLMGAGRTELMKVLYGALPRTSGYVTLDGHEVVTRSPQDGLANGIVYISEDRKRDGLVLGMSVKENMSLTALRYFSRAGGSLKHADEQQAVSDFIRLFNVKTPSMEQAIGLLSGGNQQKVAIARGLMTRPKVLILDEPTRGVDVGAKKEIYQLINQFKADGLSIILVSSEMPEVLGMSDRIIVMHEGHLSGEFTREQATQEVLMAAAVGKLNRVNQE,6.58 ± 1.1,5.992 ± 0.012,6.14 ± 0.13,5.71 ± 0.28,5.878 ± 0.015,3.11 ± 0.17,6.04 ± 0.086,11.3 ± 2.2,5.96 ± 0.35,12.7 ± 0.54,6.499 ± 0.06,12.2 ± 0.6
MLTEQQRRELDWEKTDGLMPVIVQHAVSGEVLMLGYMNPEALDKTLESGKVTFFSRTKQRLWTKGETSGNFLNVVSIAPDCDNDTLLVLANPIGPTCHKGTSSCFGDTAHQWLFLYQLEQLLAERKSADPETSYTAKLYASGTKRIAQKVGEEGVETALAATVHDRFELTNEASDLMYHLLVLLQDQGLDLTTVIENLRKRHQ,5.08 ± 0.17,4.38 ± 0.43,5.44 ± 1.4,4.24 ± 0.072,4.046 ± 0.0072,2.92 ± 0.14,5.63 ± 1,,4.51 ± 0.3,6.795 ± 0.027,,12.9 ± 3.1
MTFWSILRQRCWGLVLVVAGVCVITFIISHLIPGDPARLLAGDRASDAIVENIRQQLGLDQPLYVQFYRYVSDLFHGDLGTSIRTGRPVLEELRIFFPATLELAFGALLLALLIGIPLGILSAVWRNRWLDHLVRIMAITGISTPAFWLGLGVIVLFYGHLQILPGGGRLDDWLDPPTHVTGFYLLDALLEGNGEVFFNALQHLILPALTLAFVHLGIVARQIRSAMLEQLSEDYIRTARASGLPGWYIVLCYALPNALIPSITVLGLALGDLLYGAVLTETVFAWPGMGAWVVTSIQALDFPAVMGFAVVVSFAYVLVNLVVDLLYLWIDPRIGRGGGE,> 8,,5.53,,,,,,5.15,7.28,,
MVLGKPQTDPTLEWFLSHCHIHKYPSKSTLIHQGEKAETLYYIVKGSVAVLIKDEEGKEMILSYLNQGDFIGELGLFEEGQERSAWVRAKTACEVAEISYKKFRQLIQVNPDILMRLSAQMARRLQVTSEKVGNLAFLDVTGRIAQTLLNLAKQPDAMTHPDGMQIKITRQEIGQIVGCSRETVGRILKMLEDQNLISAHGKTIVVYGTR [P0ACJ8],5.31 ± 0.51,5.17 ± 0.55,4.68 ± 0.23,4.86 ± 0.09,4.55 ± 0.33,2.92 ± 0.22,5.84 ± 0.064,10 ± 0.63,4.582 ± 0.038,7.59 ± 0.18,5.09 ± 0.27,9.72 ± 0.62
MAKIKGQVKWFNESKGFGFITPADGSKDVFVHFSAIQGNGFKTLAEGQNVEFEIQDGQKGPAAVNVTAI [P0A9Y6],4.07 ± 0.35,3.26 ± 0.19,2.88 ± 0.095,3.98 ± 0.54,2.65 ± 0.03,2.24 ± 0.71,3.23 ± 0.29,5.61 ± 1.2,2.83 ± 0.21,3.96 ± 0.13,2.94 ± 0.28,5 ± 1.2
MKLRSVTYALFIAGLAAFSTSSLAAQSLRFGYETSQTDSQHIAAKKFNDLLQERTKGELKLKLFPDSTLGNAQAMISGVRGGTIDMEMSGSNNFAGLSPVMNLLDVPFLFRDTAHAHKTLDGKVGDDLKASLEGKGLKVLAYWENGWRDVTNSRAPVKTPADLKGLKIRTNNSPMNIAAFKVFGANPIPMPFAEVYTGLETRTIDAQEHPINVVWSAKFFEVQKFLSLTHHAYSPLLVVINKAKFDGLSPEFQQALVSSAQEAGNYQRKLVAEDQQKIIDGMKEAGVEVITDLDRKAFSDALGNQVRDMFVKDVPQGADLLKAVDEVQ,4.65,,,,,3.23 ± 0.18,6.69 ± 0.32,9.23 ± 0.3,,,,
MKKSILALSLLVGLSTAASSYAALPETVRIGTDTTYAPFSSKDAKGDFVGFDIDLGNEMCKRMQVKCTWVASDFDALIPSLKAKKIDAIISSLSITDKRQQEIAFSDKLYAADSRLIAAKGSPIQPTLDSLKGKHVGVLQGSTQEAYANETWRSKGVDVVAYANQDLVYSDLAAGRLDAALQDEVAASEGFLKQPAGKDFAFAGSSVKDKKYFGDGTGVGLRKDDAELTAAFNKALGELRQDGTYDKMAKKYFDFNVYGD,6.69 ± 0.15,,6.37 ± 0.68,6.79 ± 0.077,5.31 ± 0.11,3.22 ± 0.3,6.33 ± 0.92,11.58 ± 0.11,5.27 ± 0.47,8.71 ± 0.59,5.98 ± 0.25,11.4 ± 1.6
MQQKMIQFSGDVSLPAVGQGTWYMGEDASQRKTEVAALRAGIELGLTLIDTAEMYADGGAEKVVGEALTGLREKVFLVSKVYPWNAGGQKAINACEASLRRLNTDYLDLYLLHWSGSFAFEETVAAMEKLIAQGKIRRWGVSNLDYADMQELWQLPGGNQCATNQVLYHLGSRGIEYDLLPWCQQQQMPVMAYSPLAQAGRLRNGLLKNAVVNEIAHAHNISAAQVLLAWVISHQGVMAIPKAATIAHVQQNAAVLEVELSSAELAMLDKAYPAPKGKTALDMV,> 8,,,,,2.9 ± 0.38,5.61 ± 0.92,8.61 ± 1.4,,,5.03 ± 0.38,9.97 ± 0.73
MLKARNCGWIRLLPLFMLSLPVQAELRCVANAVDIESFFSAATAEDKQQVEQAINSSVNLVPFGLSASNWKVHRGDLVVEGNIESNQKLIVLGNLTVKGNISTFSLSNPWVILGNVTATNIVADSPLLITGSINASGLVFIDSYYDNPSTIKGSINARGIFINDIIAPVVASSTNSEFMVRASDKHDTENVKKALMIINPDAYYWGLINDEDALKEIFKRSNIRMAGNVCNQMKKEALFRPKPSPELVQELQMLDEGKVAAFEGRDIATFDLAVMRTLPRLKGISANLRKQLINSNDEQTIESMARYMPDNEILELTDQQLGYQPVVLGLLDREPLSVEIMTRMSRLPDGVGPLNLALRENLPLDIVMTLAKRDWDMIIQELYKDAWLLPESIIDGYIRSDDSSIRQVGAGGQLTYNQAMQLANDSSNNVVTSLAFKLAEMKHHGQLLRMTPQESDKVAGYLYQKFENDDDLIRVLFLALPDNLQFNFVKRMEKKSPAYFCCRDMQVIHSDAALQRLLTRFNDPEGWSNLAKNQYLSTSMKQKIWQRALSHRKNNPKADSDAYETSADMILSELISHGEVDDQMLLNATALIRSDDWDFLESALISWDNLPAVVLKELQQNTPRNDIWAKFFLRQENSSRAQVDEALRVYYALDPDALAQLDVLAKQPDRIWWSTLAKSNLTFFKFGALNNRHTPPAVLAAEIDPEWWIVAMNNPRFPVDVLKARLKRDPLLALELVNPELDLVRQLALNGKTRAIREQAMRKLDELY,> 8,,,,,,,,,,,

# Reference: the supplement of paper PMC11246515
